How the values were obtained:
human CCL17 = molecular target: T1, human CCL17 (human, UniProt Q92583 24-94); experiment: ranking ELISA of Fab variants with bt-human CCL17
T1 construct: Biotinylated in the Fab ELISAs; also called huCCL17; Bt-huCCL17
T1 sequence: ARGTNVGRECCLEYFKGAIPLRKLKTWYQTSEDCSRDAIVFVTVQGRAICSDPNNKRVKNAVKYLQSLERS

cyno CCL17 = molecular target: T2, cyno CCL17 (Macaca fascicularis (cyno), UniProt Q8HYP9 24-94 (rhesus entry)); experiment: ELISA, Fab captured by anti-kappa, biotinylated chemokine, streptavidin:HRP
T2 construct: Biotinylated in the Fab ELISAs; also called cCCL17; cCCL-17
T2 sequence: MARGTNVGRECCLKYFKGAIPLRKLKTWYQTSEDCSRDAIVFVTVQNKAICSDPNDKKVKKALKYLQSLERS
Method: (§1) Briefly, Maxisorp 96 well plates were coated with 1 μg/ml Goat anti-human Kappa (Southern Biotech). Semi-purified Fab was added to each plate. […] Proteins bound to the captured Fabs were detected using Streptavidin:HRP.

cyno CCL22 = molecular target: T3, cyno CCL22 (cyno, UniProt O00626 25-93 (human entry), limits assumed); experiment: as above
T3 construct: Biotinylated in the Fab ELISA; also called cCCL22; CCCL22
T3 chain: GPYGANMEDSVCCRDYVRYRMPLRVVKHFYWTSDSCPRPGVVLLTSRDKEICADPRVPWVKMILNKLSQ
Method: as §1

Row | binding result (human CCL17) | binding result (cyno CCL17) | binding result (cyno CCL22) | Binder
1 | binds |  |  | C17F319 variant W→T at HCDR3 position 100a (Kabat) (Fab, V domains shown) VH: EVQLVQSGAEVKKPGESLKISCKGSGYSFTSYWIGWVRQMPGKGLEWMGIIDPSDSDTRYSPSFQGQVTISADKSISTAYLQWSSLKASDTAMYYCARVGPADVTDSFDYWGQGTLVTVSS VL: DIVMTQSPDSLAVSLGERATINCKSSQSVLLSPWNSNQLAWYQQKPGQPPKLLIYGASTRESGVPDRFSGSGSGTDFTLTISSLQAEDVAVYYCQQYYLIPSTFGQGTKVEIK
2 |  | binds | no binding | F24 (Fab, V domains shown, Semi-purified Fab with a His tag at the C-terminus of the heavy chain; also called C17F24) VH: EVQLVQSGAEVKKPGESLKISCKGSGYSFTSYWIGWVRQMPGKGLEWMGIIDPSDSDTRYSPSFQGQVTISADKSISTAYLQWSSLKASDTAMYYCARVGPADVWDSFDYWGQGTLVTVSS VL: not shown
3 | binds |  |  | C17F319 variant W→R at HCDR3 position 100a (Kabat) (Fab, V domains shown) VH: EVQLVQSGAEVKKPGESLKISCKGSGYSFTSYWIGWVRQMPGKGLEWMGIIDPSDSDTRYSPSFQGQVTISADKSISTAYLQWSSLKASDTAMYYCARVGPADVRDSFDYWGQGTLVTVSS VL: DIVMTQSPDSLAVSLGERATINCKSSQSVLLSPWNSNQLAWYQQKPGQPPKLLIYGASTRESGVPDRFSGSGSGTDFTLTISSLQAEDVAVYYCQQYYLIPSTFGQGTKVEIK
